Reference: PMC7642414, “R-spondins are BMP receptor antagonists in Xenopus early embryonic development” (Nature Communications, 2020)

T1: recombinant human RSPO3 (human, UniProt Q9BXY4 22-272)
T1 construct: R-spondin 3, human, recombinant protein; source: bought: Peprotech 120-44
T1 sequence (looked up): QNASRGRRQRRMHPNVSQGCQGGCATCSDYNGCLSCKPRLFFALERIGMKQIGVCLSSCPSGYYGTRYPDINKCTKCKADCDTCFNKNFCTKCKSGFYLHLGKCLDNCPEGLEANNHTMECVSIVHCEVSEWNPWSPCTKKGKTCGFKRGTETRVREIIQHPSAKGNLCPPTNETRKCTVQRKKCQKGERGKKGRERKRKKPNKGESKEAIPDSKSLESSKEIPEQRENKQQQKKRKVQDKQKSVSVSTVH


How the values were obtained:
recombinant human RSPO2 [1] = molecular target: T2, recombinant human RSPO2 (human, UniProt Q6UXX9 22-243); experiment: solid-phase in vitro binding assay (AP fusion read-out); Scatchard plot; RSPO2 recombinant protein (Peprotech 120-43) and BMPR1A^ECD-AP; settings: one partner purified
T2 construct: R-spondin 2, human, recombinant protein; source: bought: Peprotech 120-43
T2 sequence (Q6UXX9 22-243): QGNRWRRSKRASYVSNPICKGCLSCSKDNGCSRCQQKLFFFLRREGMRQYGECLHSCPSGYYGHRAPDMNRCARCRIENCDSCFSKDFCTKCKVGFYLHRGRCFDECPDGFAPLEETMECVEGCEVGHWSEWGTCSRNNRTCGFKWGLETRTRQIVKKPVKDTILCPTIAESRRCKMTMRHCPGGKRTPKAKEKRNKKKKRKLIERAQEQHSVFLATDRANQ

recombinant human RSPO3 = molecular target: T1, recombinant human RSPO3; experiment: solid-phase in vitro binding assay (AP fusion read-out); ternary complex: recombinant RSPO protein on plate-coated ZNRF3 Fc chimera (4-6 h), read out through BMPR1A^ECD-AP; settings: both partners purified
recombinant human RSPO2 [2] = molecular target: T2, recombinant human RSPO2; experiment: as above; settings: both partners purified

Row | Binder | Kd (recombinant human RSPO2 [1]) [nM] | binding result (recombinant human RSPO3) | binding result (recombinant human RSPO2 [2])
1 | BMPR1A^ECD-AP (domain or fragment, human, UniProt P36894 24-152, looked up, Extracellular domain of BMPR1A/ALK3; also called extracellular domain of BMPR1A; source: HEK293T, transiently transfected, conditioned medium) QNLDSMLHGTGMKSDSDQKKSENGVTLAPEDTLPFLKCYCSGHCPDDAINNTCITNGHCFAIIEEDDQGETTLASGCMKYEGSDFQCKDSPKAQLRRTIECCRTNLCNQYLQPTLPPVVIGPFFDGSIR | ~4.8 |  | 
2 | recombinant human ZNRF3 Fc Chimera protein (Fc fusion, UniProt Q9ULT6 56-219, looked up, Zinc and ring finger 3 (ZNRF3), human, as Fc chimera; source: bought: R&D systems 7994-RF) KETAFVEVVLFESSPSGDYTTYTTGLTGRFSRAGATLSAEGEIVQMHPLGLCNNNDEEDLYEYGWVGVVKLEQPELDPKPCLTVLGKAKRAVQRGATAVIFDVSENPEAIDQLNQGSEDPLKRPVVYVKGADAIKLMNIVNKQKVARARIQHRPPRQPTEYFDM |  | binds | binds
